{"source": "the RNAGym collection of RNA variant scans (doi:10.7554/elife.80360)", "parents": {"B1": {"name": "Twister Ribozyme (parent)", "chain": "AACACUGCCAAUGCCGGUCCCAAGCCCGGAUAAAAGUGGAGGGGGCGG"}}, "data": [{"variants_of": "B1", "assay": "self-cleavage, relative activity (ratio to wild type); higher = more cleavage; co-transcriptional", "values": [{"variant": "AACACUGCCAAUGCCGGUCCCAAGCCCGGAUAAAAGUAGAGGGUGCGG", "self-cleavage": 0.846}, {"variant": "AACACUGCCAAUGCCGGUCCCAAGCCCGGAUAAAAGUAGAGGGAGCGG", "self-cleavage": 0.897}, {"variant": "AACACUGCCAAUGCCGGUCCCAAGCCCGGAUAAAAGUAGAGAGGGCGG", "self-cleavage": 0.176}, {"variant": "AACACUGCCAAUGCCGGUCCCAAGCCCGGAUAAAAGUAGAGCGGGCGG", "self-cleavage": 0.247}, {"variant": "AACACUGCCAAUGCCGGUCCCAAGCCCGGAUAAAAGGGGGGGGGGCGG", "self-cleavage": 0.155}, {"variant": "AACACUGCCAAUGCCGGUCCCAAGCCCGGAUAAAAGGGGAGGGGGCCG", "self-cleavage": 0.306}, {"variant": "AACACUGCCAAUGCCGGUCCCAAGCCCGGAUAAAAGGGGAGGGGGCAG", "self-cleavage": 0.673}, {"variant": "AACACUGCCAAUGCCGGUCCCAAGCCCGGAUAAAAGGGCAGGGGGCGG", "self-cleavage": 0.143}, {"variant": "AACACUGCCAAUGCCGGUCCCAAGCCCGGAUAAAAGGGUAGGGGGCGG", "self-cleavage": 0.114}, {"variant": "AACACUGCCAAUGCCGGUCCCAAGCCCGGAUAAAAUUGGAGGGGGGGG", "self-cleavage": 0.313}, {"variant": "AACACUGCCAAUGCCGGUCCCAAGCCCGGAUAAAAUUGGAGGGGGUGG", "self-cleavage": 0.408}, {"variant": "AACACUGCCAAUGCCGGUCCCAAGCCCGGAUAAAAUUGGAGGGGGAGG", "self-cleavage": 0.31}, {"variant": "AACACUGCCAAUGCCGGUCCCAAGCCCGGAUAAAAGUAGAGGCGGCGG", "self-cleavage": 0.148}, {"variant": "AACACUGCCAAUGCCGGUCCCAAGCCCGGAUAAAAGUAGAGGAGGCGG", "self-cleavage": 0.19}, {"variant": "AACACUGCCAAUGCCGGUCCCAAGCCCGGAUAAAAGAGGAGGGGGCAG", "self-cleavage": 0.457}, {"variant": "AACACUGCCAAUGCCGGUCCCAAGCCCGGAUAAAAGAGGAGGGGCCGG", "self-cleavage": 0.323}, {"variant": "AACACUGCCAAUGCCGGUCCCAAGCCCGGAUAAAAGUAGAGGGGGCGG", "self-cleavage": 0.965}, {"variant": "AACACUGCCAAUGCCGGUCCCAAGCCCGGAUAAAAGUCGAGGGGGCGG", "self-cleavage": 0.951}, {"variant": "AACACUGCCAAUGCCGGUCCCAAGCCCGGAUAAAAGUAGAGGGGGCCG", "self-cleavage": 0.522}, {"variant": "AACACUGCCAAUGCCGGUCCCAAGCCCGGAUAAAAGUAGAGGGGGCUG", "self-cleavage": 0.814}, {"variant": "AACACUGCCAAUGCCGGUCCCAAGCCCGGAUAAAAGCGGAGGGAGCGG", "self-cleavage": 0.69}, {"variant": "AACACUGCCAAUGCCGGUCCCAAGCCCGGAUAAAAGCGGAGGGUGCGG", "self-cleavage": 0.768}, {"variant": "AACACUGCCAAUGCCGGUCCCAAGCCCGGAUAAAAGCGGAGGGCGCGG", "self-cleavage": 0.738}, {"variant": "AACACUGCCAAUGCCGGUCCCAAGCCCGGAUAAAACUGGAGGUGGCGG", "self-cleavage": 0.116}, {"variant": "AACACUGCCAAUGCCGGUCCCAAGCCCGGAUAAAACUGGAGGAGGCGG", "self-cleavage": 0.134}, {"variant": "AACACUGCCAAUGCCGGUCCCAAGCCCGGAUAAAAGAGGAGGUGGCGG", "self-cleavage": 0.186}, {"variant": "AACACUGCCAAUGCCGGUCCCAAGCCCGGAUAAAAGAGGAGGGAGCGG", "self-cleavage": 0.873}, {"variant": "AACACUGCCAAUGCCGGUCCCAAGCCCGGAUAAAAGAGGAGGGCGCGG", "self-cleavage": 0.821}, {"variant": "AACACUGCCAAUGCCGGUCCCAAGCCCGGAUAAAAGAGGAGGGUGCGG", "self-cleavage": 0.755}, {"variant": "AACACUGCCAAUGCCGGUCCCAAGCCCGGAUAAAAGUAGAGGGGACGG", "self-cleavage": 0.797}, {"variant": "AACACUGCCAAUGCCGGUCCCAAGCCCGGAUAAAAUUGGAGGGCGCGG", "self-cleavage": 0.372}, {"variant": "AACACUGCCAAUGCCGGUCCCAAGCCCGGAUAAAAUUGGAGGGUGCGG", "self-cleavage": 0.355}, {"variant": "AACACUGCCAAUGCCGGUCCCAAGCCCGGAUAAAAUUGGAGGGAGCGG", "self-cleavage": 0.717}, {"variant": "AACACUGCCAAUGCCGGUCCCAAGCCCGGAUAAAAUUGGCGGGGGCGG", "self-cleavage": 0.122}, {"variant": "AACACUGCCAAUGCCGGUCCCAAGCCCGGAUAAAAUUGGUGGGGGCGG", "self-cleavage": 0.141}, {"variant": "AACACUGCCAAUGCCGGUCCCAAGCCCGGAUAAAAGAGAAGGGGGCGG", "self-cleavage": 0.173}, {"variant": "AACACUGCCAAUGCCGGUCCCAAGCCCGGAUAAAAGAGUAGGGGGCGG", "self-cleavage": 0.159}, {"variant": "AACACUGCCAAUGCCGGUCCCAAGCCCGGAUAAAAGAUGAGGGGGCGG", "self-cleavage": 0.38}, {"variant": "AACACUGCCAAUGCCGGUCCCAAGCCCGGAUAAAAGACGAGGGGGCGG", "self-cleavage": 0.551}, {"variant": "AACACUGCCAAUGCCGGUCCCAAGCCCGGAUAAAAGAAGAGGGGGCGG", "self-cleavage": 0.821}, {"variant": "AACACUGCCAAUGCCGGUCCCAAGCCCGGAUAAAACUGGAGGGAGCGG", "self-cleavage": 0.7}, {"variant": "AACACUGCCAAUGCCGGUCCCAAGCCCGGAUAAAAGAGGAGAGGGCGG", "self-cleavage": 0.129}, {"variant": "AACACUGCCAAUGCCGGUCCCAAGCCCGGAUAAAAGAGGAGUGGGCGG", "self-cleavage": 0.153}, {"variant": "AACACUGCCAAUGCCGGUCCCAAGCCCGGAUAAAAGAGGAGCGGGCGG", "self-cleavage": 0.252}, {"variant": "AACACUGCCAAUGCCGGUCCCAAGCCCGGAUAAAACCGGAGGGGGCGG", "self-cleavage": 0.123}, {"variant": "AACACUGCCAAUGCCGGUCCCAAGCCCGGAUAAAACGGGAGGGGGCGG", "self-cleavage": 0.297}, {"variant": "AACACUGCCAAUGCCGGUCCCAAGCCCGGAUAAAACAGGAGGGGGCGG", "self-cleavage": 0.107}, {"variant": "AACACUGCCAAUGCCGGUCCCAAGCCCGGAUAAAAGCGGAGAGGGCGG", "self-cleavage": 0.105}, {"variant": "AACACUGCCAAUGCCGGUCCCAAGCCCGGAUAAAAGCGGAGUGGGCGG", "self-cleavage": 0.127}, {"variant": "AACACUGCCAAUGCCGGUCCCAAGCCCGGAUAAAAGCGGAGCGGGCGG", "self-cleavage": 0.196}, {"variant": "AACACUGCCAAUGCCGGUCCCAAGCCCGGAUAAAAGCGGAGGGGGCCG", "self-cleavage": 0.341}, {"variant": "AACACUGCCAAUGCCGGUCCCAAGCCCGGAUAAAAUUGGAGCGGGCGG", "self-cleavage": 0.16}, {"variant": "AACACUGCCAAUGCCGGUCCCAAGCCCGGAUAAAAUUGGAGAGGGCGG", "self-cleavage": 0.123}, {"variant": "AACACUGCCAAUGCCGGUCCCAAGCCCGGAUAAAAGAGGAAGGGGCGG", "self-cleavage": 0.16}]}]}
